Reference: publication PMC4650713, “Crystal structure of Bax bound to the BH3 peptide of Bim identifies important contacts for interaction” (Cell Death & Disease, 2015)

Tests used:
[1] = molecular target: the molecule itself; experiment: crystal structure; BidBH3, BimBH3mini or BidBH3mini with core/latch dimers of BaxI66AΔC21, BaxΔC26 or BaxΔC28; threefold molar excess of peptide; about 1 M tri-sodium citrate, 0.1 M sodium cacodylate pH 6.5, 277 K
[2] = molecular target: the molecule itself; experiment: crystal structure; BimBH3:BaxΔC26; core/latch dimer induced by peptide, purified by SEC, threefold molar excess of peptide added; 0.1 M sodium bicine pH 9.0, 20% PEG6000, 277 K

Row | Protein | stoichiometry N [1] | stoichiometry N [2]
1 | BaxΔC28 (domain or fragment, Bax truncated at the C terminus by 28 amino acids, with C62S and C126S; lacks F165; two extra residues (Ser–Ser) at the C terminus after intein digestion, a cloning artefact; In the crystal it stands as a core/latch dimer; also called Bax C62S C126S truncated at the C terminus by 28 amino acids) MDGSGEQPRGGGPTSSEQIMKTGALLLQGFIQDRAGRMGGEAPELALDPVPQDASTKKLSESLKRIGDELDSNMELQRMIAAVDTDSPREVFFRVAADMFSDGNFNWGRVVALFYFASKLVLKALSTKVPELIRTIMGWTLDFLRERLLGWIQDQGGWDGLLSYSS | 2 | 
2 | BaxΔC26 (domain or fragment, Bax truncated at the C terminus by 26 amino acids, with C62S and C126S; C terminus G166; two extra residues (Ser–Ser) at the C terminus after intein digestion, a cloning artefact; In the crystals it stands as a domain-swapped core/latch dimer, each chain with one BH3 peptide; also called Bax C62S C126S truncated at the C terminus by 26 amino acids) MDGSGEQPRGGGPTSSEQIMKTGALLLQGFIQDRAGRMGGEAPELALDPVPQDASTKKLSESLKRIGDELDSNMELQRMIAAVDTDSPREVFFRVAADMFSDGNFNWGRVVALFYFASKLVLKALSTKVPELIRTIMGWTLDFLRERLLGWIQDQGGWDGLLSYFGSS |  | 2
3 | BaxI66AΔC21 (domain or fragment, UniProt Q07812 1-171, looked up, BaxΔC21 (Bax truncated at the C terminus by 21 amino acids, with C62S and C126S) with I66A; Called a BaxΔC21 mutant; In the crystal it stands as a core/latch dimer; also called BaxΔC21 mutant I66A) MDGSGEQPRGGGPTSSEQIMKTGALLLQGFIQDRAGRMGGEAPELALDPVPQDASTKKLSESLKRAGDELDSNMELQRMIAAVDTDSPREVFFRVAADMFSDGNFNWGRVVALFYFASKLVLKALSTKVPELIRTIMGWTLDFLRERLLGWIQDQGGWDGLLSYFGTPTWQ | 2 | 
